Details in all cases: remark: other sources report otherwise
Assay [1] has as its target T1, SARS-CoV-2 spike receptor-binding domain (RBD) (SARS-CoV-2), P0DTC2. The experiment in a line: SPR (Biacore 3000), RBD immobilised, Nb as analyte, 1:1 Langmuir fit. A general note: SPR reads the build-up and loss of mass on a sensor chip optically.
For assay [2], the target named is receptor-binding domain (RBD) of the SARS-CoV-2 spike (S) glycoprotein (SARS-CoV-2), P0DTC2.
Assay [3] concerns the target T1, SARS-CoV-2 spike receptor-binding …. Description: indirect ELISA, RBD coated on plate, 4PL fit. (An ELISA detects its analyte on a solid surface through an enzyme-linked reagent.)

The source of these data is patent US20240043505A1.

A value given as a limit tells only on which side of the number the result lay.

B1: Nb21 (VHH)
VHH: QVQLVESGGGLVQAGGSLRLSCAVSGLGAHRVGWFRRAPGKEREFVAAIGANGGNTNYLDSVKGRFTISRDNAKNTIYLQMNSLKPQDTAVYYCAARDIETAEYTYWGQGTQVTVSS
In general, Kd refers to a measure of binding affinity in units of concentration. Higher therefore signals lower affinity. For orientation: koff means a measure of how fast the partners let go of each other. As usually defined, the kon is a measure of how fast the partners come together. The low end stands for slower complex formation, the high end for faster complex formation. In assay [1], B1 gave an equilibrium dissociation constant (Kd) below 1 pM, a koff below 1e-06 s⁻¹ and a kon of 3.79e+06 M⁻¹ s⁻¹. In addition, the Buried surface area in assay [2] stood at 850 Å^2. The ELISA affinity in assay [3] is 0.3 nM.

B2: Nb17 (VHH)
VHH: HVQLVESGGGLVQAGGSLRLSCAASGSIFSSNAMSWYRQAPGKQRELVASITSGGNADYADSVKGRFTISRDKNTVYPEMSSLKPADTAVYYCHAVGQEASAYAPRAYWGQGTQVTVSS
In assay [2], B2 returned a Buried surface area of 921 Å^2. In assay [3], this molecule returned an ELISA affinity of 0.45 nM.
